Assay results: paper PMC3692002 (Proteins, 2011)

Biological target: the molecule itself
Experiment: static light scattering

B1: UgR76, uncharacterized 73 residue domain from Ruminococcus gnavus (domain or fragment)
chain: MSEHREGTLFYDTETGRYDIRFDLESFYGGLHCGECFDVKVKDVWVPVRIEMGDDWYLVGLNVSRLDGLRVRMLEHHHHHH
stoichiometry N: 2
